# In patent US20200181198A1 (3M INNOVATIVE PROPERTIES, published 2020):
# Ends that are not written are not given here.
# How the values were obtained:
# [1] = target: T1, Recombinant Human Epidermal Growth Factor (EGF) (human, UniProt P01133 971-1023); assay: dot blot, EGF spotted on nitrocellulose, biotinylated peptide in solution, Streptavidin-HRP detection
# T1 construct: Commercial reagent; also called EGF protein
# Protocol: EGF (1 microliter of a 10 nM solution in PBS was spotted a nitrocellulose membrane (obtained from Thermo Fisher Scientific) and the membrane was dried in air for about 30 minutes. The membrane was then incubated in 15 mL of blocking buffer (3 wt. % BSA in PBS) for one hour at room temperature. The membrane was washed three times (15 minutes for each wash) with 15 mL portions of fresh PBST. The washed membrane was incubated with Biotinylated SEQ ID NO: 1 [10 mL of a 10 ng/mL solution in blocking buffer (3 wt. % BSA in PBS)] with gentle agitation for one hour. The membrane was again washed three times (15 minutes for each wash) with 15 mL portions of fresh PBST. The washed membrane was incubated with Streptavidin-HRP [1:5000 dilution in 10 mL of the blocking buffer (3 wt. % BSA in PBS)] for 30 minutes with gentle agitation. Following the incubation, the membrane was washed three times (15 minutes for each wash) with 15 mL portions of fresh PBST. The washed membrane was incubated with 10 mL of the development solution for horseradish peroxidase (TMB-Blotting Substrate Solution, Pierce-Fisher Scientific) with gentle agitation. The color development was stopped by adding water. A dark spot developed at the application site on the membrane indicating affinity of SEQ ID NO: 1 for EGF.
# [2] = target: T1, Recombinant Human Epidermal Growth …; assay: SPR (Biacore 3000, CM5 chip), linker modified peptide immobilized, EGF as analyte, Test Method A; EGF as analyte
# Protocol: (§1) The following Test Method A was used for determining the binding affinity (KD) of SEQ ID NO: 1 for EGF and TNF-[…] Binding experiments were performed using Biacore 3000 optical biosensors equipped with research-grade CM5 sensor chips (GE Healthcare Bio-Sciences Corporation). The reagents used for the amine-coupling steps [(1-ethyl-3-(3-dimethylaminopropyl)-carbodiimide (EDC); N-hydroxysuccinimide (NHS); and ethanolamine hydrochloride-NaOH (1 M, pH 8.5)] were obtained from GE Healthcare Bio-Sciences Corporation. In order to efficiently immobilize the peptide on the sensor chips, a modified version of SEQ ID NO:1 was prepared by SPPS in which a “CK” amino acid linker sequence was added to the N-terminal end of the SEQ ID NO: 1 peptide (i.e. linker modified version of SEQ ID NO: 1 for immobilization being […]). A standard coupling protocol was employed to immobilize the linker modified version of SEQ ID NO: 1 via the lysine residues. The immobilization was performed at 25° C. using HBS-EP as the running buffer. The CM-dextran surfaces of the sensor chip flow cells were activated by a seven minute injection (20 microliters/minute) of freshly prepared 1:1 50 mM NHS: 200 mM EDC. A solution of linker modified SEQ ID NO: 1 in acetic acid (20 mM, pH 5.5) was injected to target 200 response units (RU). […]
# [3] = target: T2, Recombinant Human Tumor Necrosis Factor-alpha (TNF-alpha) (human, UniProt P01375 77-233); assay: SPR (Biacore 3000, CM5 chip), linker modified peptide immobilized, TNF-alpha as analyte, Test Method A; TNF-alpha as analyte
# T2 construct: Commercial reagent; also called TNFα
# T2 sequence (P01375 77-233 limits assumed): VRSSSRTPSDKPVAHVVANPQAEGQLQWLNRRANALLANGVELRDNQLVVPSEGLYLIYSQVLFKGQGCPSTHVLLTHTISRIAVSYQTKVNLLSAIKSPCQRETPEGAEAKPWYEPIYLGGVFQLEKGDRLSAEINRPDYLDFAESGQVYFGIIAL
# Protocol: as §1
# [4] = target: T2, Recombinant Human Tumor Necrosis …; assay: SPR (Biacore 3000, CM5 chip), linker modified peptide immobilized, TNF-alpha as analyte, 25 C
# Protocol: as §1
# [5] = target: T1, Recombinant Human Epidermal Growth …; assay: SPR (Biacore 3000, CM5 chip), linker modified peptide immobilized by amine coupling, EGF analyte 62.5-1000 nM, 25 C, 1:1 Langmuir global fit
# Protocol: as §1
# [6] = target: T1, Recombinant Human Epidermal Growth …; assay: dot blot, peptide spotted on nitrocellulose, EGF in solution, anti-EGF-IgG-HRP detection
# Protocol: SEQ ID NO: 1 (1 microliter of a 10 nM solution in PBS containing 3 wt. % DMSO) and SEQ ID NO: 2 (1 microliter of a 10 nM solution in PBS containing 3 wt. % DMSO) were individually spotted at separate sites on a nitrocellulose membrane (obtained from Thermo Fisher Scientific, Waltham, Mass.) and the membrane was dried in air for about 30 minutes. The membrane was then incubated in 25 mL of blocking buffer (3 wt. % BSA in PBS) for one hour at room temperature. The membrane was washed three times (15 minutes for each wash) with 15 mL portions of fresh PBST. The washed membrane was incubated with EGF protein [10 microliters of a 100 ng/mL solution in blocking buffer (3 wt. % BSA in PBS)] with gentle agitation for one hour. The membrane was again washed three times (15 minutes for each wash) with 15 mL portions of fresh PBST. The washed membrane was incubated with anti-EGF-IgG-HRP [1:5000 dilution in 10 mL of the blocking buffer (3 wt. % BSA in PBS)] for one hour with gentle agitation. Following the incubation, the membrane was washed three times (15 minutes for each wash) with 15 mL portions of fresh PBST. The washed membrane was incubated with 10 mL of the development solution for horseradish peroxidase (TMB-Blotting Substrate Solution, Pierce-Fisher Scientific, Rockford, Ill.) with gentle agitation. The color development was stopped by adding water.
# T1 sequence (P01133 971-1023 limits assumed): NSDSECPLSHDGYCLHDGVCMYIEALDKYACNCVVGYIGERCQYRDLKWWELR
binder,measurement,setting,value
"YVSPGMKNVNWWSHWWHATD-NH2 (not fully specified (N-terminus); also: biotinylated, site not given here) [Biotinylated SEQ ID NO: 1]",binding result,[1],binds
"CKNVNWWSHWWHATD (not fully specified (N-terminus, C-terminus); also: immobilized on CM5 chip by amine coupling or conjugated to iodoacetyl magnetic beads via linker cysteine) [linker modified version of SEQ ID NO: 2 (CKNVNWWSHWWHATD)]",Kd,[2],2.6 µM
same,Kd,[3],2450 µM
"CKYVSPGMKNVNWWSHWWHATD (not fully specified (N-terminus, C-terminus); also: immobilized on CM5 chip by amine coupling via lysine residues) [linker modified version of SEQ ID NO: 1 (CKYVSPGMKNVNWWSHWWHATD)]",binding result,[4],no binding
same,Kd,[5],0.706 µM
"Ac-KNVNWWSHWWHATD-NH2 (Chemically synthesized (SPPS, GenScript)) [SEQ ID NO: 2 peptide (KNVNWWSHWWHATD)]",binding result,[6],binds
"Ac-YVSPGMKNVNWWSHWWHATD-NH2 (Chemically synthesized (SPPS, GenScript)) [SEQ ID NO: 1 peptide (YVSPGMKNVNWWSHWWHATD)]",binding result,[6],binds
